Results on three substances are retold here after patent publication US8349318B2, “Use of specifically engineered enzymes to enhance the efficacy of prodrugs” (The Board of Trustees of the University of Illinois, priority 2008, dated 2013).

As usually defined, the kcat is the maximal rate divided by the concentration of active sites. The Km is the substrate concentration at which the rate is half of its maximum.

For series [1], the system named is T1, Cc1cn([C@@H]2C[C@@H](O)[C@H](CO)O2)c(=O)[nH]c1=O.
T1 construct: made in house
The experiment in a line: Kinetic assay of nucleoside phosphorylation by R104Q-D133A dCK. To be noted: other: nucleoside 200 uM, 1 mM ATP. In kind it is biochemical, human.

Series [2] has as its system Nc1ccn([C@@H]2O[C@H](CO)[C@@H](O)C2(F)F)c(=O)n1. Kind of series: purified protein, by the assay type. Conditions: other: Table 9; pH 7.5; 37.0 °C.
In series [3] the test system is Nc1nc2c(ncn2[C@H]2C[C@H](O)[C@@H](CO)O2)c(=O)[nH]1. The experiment in a line: purified protein, by the assay type. To be noted: other: Table 9; pH 7.5; 37.0 °C.
Series [4] has as its system Cc1cn([C@@H]2C[C@@H](O)[C@H](CO)O2)c(=O)[nH]c1=O. The experiment in a line: purified protein, by the assay type. Conditions: other: Table 9; pH 7.5; 37.0 °C.

dCK R104L/D133A (Homo sapiens; D133A/R104L), sequence (chain, as listed by the source R104L D133A D133A R104L): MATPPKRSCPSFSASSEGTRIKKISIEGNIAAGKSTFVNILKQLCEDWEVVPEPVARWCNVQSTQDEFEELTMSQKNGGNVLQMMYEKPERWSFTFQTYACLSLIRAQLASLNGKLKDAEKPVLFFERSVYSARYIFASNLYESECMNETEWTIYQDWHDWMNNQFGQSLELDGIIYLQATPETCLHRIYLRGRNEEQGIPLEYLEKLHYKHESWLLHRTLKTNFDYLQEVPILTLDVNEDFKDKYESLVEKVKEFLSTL
Wild Type dCK (Homo sapiens), sequence (chain, as listed by the source): as the sequence (chain, as listed by the source R104L D133A D133A R104L) above, with L104R, A133D counted along it
R104Q-D133A dCK (Homo sapiens; D133A/R104Q), sequence (chain, as listed by the source R104Q D133A D133A R104Q): as the sequence (chain, as listed by the source R104L D133A D133A R104L) above, with L104Q counted along it

As for “R104Q-D133A dCK (Homo sapiens; D133A/R104Q)”, the turnover number (kcat) in series [1] came to 0.24 s⁻¹.
In the case of Wild Type dCK (Homo sapiens), in series [2], the Michaelis constant (Km) was 16.1 ± 3.5 µM and the kcat came to 0.39 ± 0.03 s⁻¹. Also, in series [3], the Km is 231.0 ± 20.0 µM and the kcat was 2.60 ± 0.10 s⁻¹.
As for “dCK R104L/D133A (Homo sapiens; D133A/R104L)”, the Km worked out at 33.8 ± 5.3 µM in series [2], 2266 ± 823 µM in series [3] and 17.8 ± 1.6 µM in series [4]. The kcat in series [2] was determined as 2.01 ± 0.08 s⁻¹; in series [3] it was 3.66 ± 0.01 s⁻¹; in series [4] it was 1.33 ± 0.01 s⁻¹.
